US20150167014A1, “MODULATION OF PLANT GROWTH BY VAS1 MUTATION” (THE SALK INSTITUTE FOR BIOLOGICAL STUDIES, priority 2013, published 2015)
Positions count from the first letter of the chain named. Names and notes keep the numbering of the source.

Tests used:
[1] = substrate: N[C@@H](Cc1c[nH]cn1)C(=O)O; experiment: Steady-state kinetic assay of VAS1 I267M transaminase activity (rate of loss of IPA at 321 nm); assay type: biochemical, Arabidopsis thaliana; details: other: fixed 3-IPA 300 μM, variable L-His 0.1 to 10 mM, 0.4 μM VAS1 I267M, 100 μM PLP, pH 8.0, 23° C.
Description: (§1) FIG. 9A-B. Steady-state kinetic analyses of VAS1 I267M. […] Fixed concentration of L-His (10 mM) and variable concentrations of 3-IPA from 10 to 200 μM (A) Fixed concentration of 3-IPA (300 μM) and variable concentrations of L-His from 0.1 to 10 mM (B). Apparent KM, Vmax and kcat of VAS1 are shown above each curve and standard errors calculated from Graphpad Prism 5 software (www.graphpad.com).
(§2) The coding sequence of AtVAS1 was inserted between the NcoI and XhoI sites of the expression vector pHIS8 (“HIS8” disclosed as SEQ ID NO: 1) (a modified version of pET28a (+) containing an N-terminal 8-histidine tag (SEQ ID NO: 1)), which under the control of a T7 promoter. E. coli (BL21) cells harboring the AtVAS1 expression vector were grown in Terrific Broth at 37° C. until reaching an OD600 nm of 1.0 then cooled down to 18° C. and induced with 0.5 mM isopropyl-b-D-thiogalactoside (IPTG) and allowed to grow overnight at 18° C. for approximately 12-14 hr after. Cells were harvested by centrifugation and resuspended in lysis buffer (50 mM Tris-HCl, pH 8.0, 500 mM NaCl, 20 mM imidazole, 1% (v/v) Tween-20, 10% (v/v) glycerol, 10 mM 2-mercaptoethanol) containing lysozyme (0.5 mg/ml) at 4° C. for 1 hr and lysed by sonication. The lysate was centrifuged at 18,000 rpm for 45 min at 4° C. and then the supernatant were passed over Ni2+-NTA agarose (Qiagen). The AtVAS1 protein was eluted with lysate buffer supplemented with 250 mM imidazole after washed with wash buffer (lysis buffer without Tween-20 and glycerol). The N-terminal tag was cleaved by treatment with thrombin while dialyzing overnight in dialysis buffer (50 mM Tris-HCl, (pH8.0), 500 mM NaCl, 20 mM 2-mercaptoethanol). The thrombin and uncut AtVAS1 was removed by passing over Benzamidine Sepharose 4 Fast Flow (high sub) (GE Healthcare) and Ni2+-NTA agarose. AtVAS1 was further purified by size-exclusion chromatography using a Superdex 200 HR16/60 column. AtVAS1 fractions were combined, concentrated to approximately 12 mg ml-1 and frozen at −80° C. […]
(§3) For VAS1 I267M steady-state kinetic assays, 1 mL assay mixture contained 100 mM sodium phosphate buffer (pH 8.0), 0.4 μM recombinant VAS1 I 267M, 100 μM PLP and variable amounts of His (0.1 to 10 mM) and IPA (10 to 200 μM). The reactions were incubated at 23° C. and the OD321 nm were measured at 2-min, 5-min, 8-min, 10-min, 12-min and 15-min time points to monitor the linear rate of loss of IPA. Absorbance values were corrected to changes in IPA concentration based on an IPA standard curve. At 321 nm, absorbance from Trp was negligible. KM, kcat and Vmax were calculated by nonlinear regression analysis using GraphPad Prism 5 fits to the Michaelis-Menten equation.

[2] = substrate: O=C(O)C(=O)Cc1c[nH]c2ccccc12; experiment: as above; assay type: biochemical, Arabidopsis thaliana; details: other: fixed L-His 10 mM, variable 3-IPA 10 to 200 μM, 0.4 μM VAS1 I267M, 100 μM PLP, pH 8.0, 23° C.
Description: as §1, §2, §3

[3] = Amino donor test of VAS1 variants (19 amino acids, 3-IPA as amino acceptor); assay type: biochemical, Arabidopsis thaliana; details: 19 natural amino acids (except Trp) as amino donor
Description: VAS1 and its variants transaminase activity was monitor by HPLC-MS with an Agilent 1100 series LC-MSD instrument and an Agilent Zorbax Eclipse XDB-C18 (4.6×150 mm, […]) reversed-phase column. Chromatographic separations employed a flow rate of 0.5 mL min-1 and a linear gradient with initial and final mobile phases consisting of 95% water: 4.9%: acetonitrile: 0.1% formic acid (v/v/v), and 5% water: 94.9% acetonitrile: 0.1% formic acid (v/v/v), respectively. VAS1 mutants relative activity assays were conducted in a 200 μL volume containing 50 mM L-Met (with the exception of L-Trp), 10 mM IPA, 200 μM PLP and 10 μg of purified VAS1 or VAS1 variants protein in a reaction buffer consisting of 50 mM K2HPO4/KH2PO4 (pH 8.5). To further test the best amino donor of I267M and I267F mutant, one of 19 other amino acids (with the exception of L-Trp) was taking the place of L-Met. […] Relative specific activities were calculated after integration of the Trp peak (based on the absorbance at 254 nm) and the activity against Met and IPA was arbitrarily set to 100% for VAS1 variants M19V, M19I, M19F, I267V, 1267 M and I267F. […]

[4] = molecular target: the molecule itself; experiment: X-ray crystal structure of VAS1•PLP complex

B1: Arabidopsis thaliana aminotransferase VAS1 (AtVAS1, NCBI Accession No. NP—178152, SEQ ID NO: 14), variant I267M (Ile267Met) (Arabidopsis thaliana; I267M) (protein)
chain: MGSFGMLSRRTLGTDMPVMAQIRSLMAELTNPMSLAQGVVHWQPPQKALEKVKELVWDPIISSYGPDEGLPELRQALLKKLREENKLTNSQVMVTAGANQAFVNLVITLCDAGDSVVMFEPYYFNSYMAFQMTGVTNIIVGPGQSDTLYPDADWLERTLSESKPTPKVVTVVNPGNPSGTYVPEPLLKRIAQICKDAGCWLIVDNTYEYFMYDGLKHCCVEGDHIVNVFSFSKTYGMMGWRLGYIAYSERLDGFATELVKIQDNIPMCAAIISQRLAVYALEEGSGWITERVKSLVKNRDIVKEALEPLGKENVKGGEGAIYLWAKLPEGHRDDFKVVRWLAHRHGVVVIPGCASGSPGYLRVSFGGLQEVEMRAAAARLRKGIEELLHHGMVE
notes: I267M by QuikChange mutagenesis
Km [1]: 534 µM | kcat [1]: 0.0392 s⁻¹ | Km [2]: 62.4 µM | kcat [2]: 0.0447 s⁻¹

B2: VAS1: wild-type pyridoxalphosphate-dependent aminotransferase of Arabidopsis thaliana (protein)
chain: B1 chain with M267I
aminotransferase activity / most efficient amino donor [3]: Met is the most suitable amino donor

B3: Arabidopsis thaliana aminotransferase VAS1 (enzyme)
chain: B1 chain with M267I
modifications: PLP (pyridoxal phosphate) bound as internal aldimine to the epsilon-amino group of Lys 233
notes: The protein crystallised as a symmetric homodimer with PLP; also called AtVAS1
binding result [4]: binds
